Experimental findings from patent US20250320281A1 are described below.

Common to all, as to test: cell-based or functional assay
Assay [1] deals with HIV-1 Env of isolate JR-CSF (pseudovirus) (HIV-1) (UniProt P20871).
Assay [2] has as its target HIV-1 Env of isolate 92TH021 (pseudovirus) (HIV-1).
For assay [3], the target named is HIV-1 Env of isolate MGRM-C-026 (pseudovirus) (HIV-1).
Assay [4] addresses HIV-1 Env of isolate MGRM-C-022 (HIV-1).
Assay [5] has as its target HIV-1 Env of isolate MGRM-C-014 (HIV-1).
Assay [6] deals with HIV-1 Env of isolate MGRM-C-020 (HIV-1).
For assay [7], the target named is HIV-1 Env of isolate MGRM-C-026 (HIV-1).
Assay [8] deals with HIV-1 Env of isolate MGRM-C-028 (HIV-1).
In assay [9] the target is HIV-1 Env of isolate MGRM-C-019 (HIV-1).
Assay [10] deals with HIV-1 Env of isolate MGRM-C-024 (HIV-1).
In assay [11] the target is HIV-1 Env of isolate MGRM-C-017 (HIV-1).
Assay [12] has as its target HIV-1 Env of isolate MGRM-C-015 (HIV-1).
For assay [13], the target named is HIV-1 Env of isolate MGRM-C-027 (HIV-1).
Assay [14] concerns the target HIV-1 Env of isolate MGRM-C-025 (HIV-1).
In assay [15] the target is HIV-1 Env of isolate MGRM-C-023 (HIV-1).
Assay [16] deals with HIV-1 Env of isolate MG RM-D-011 (HIV-1).
The target in assay [17] is HIV-1 Env of pseudovirus MGRM-AG-012 (subtype AG) (HIV-1).
Assay [18] has as its target HIV-1 Env of isolate MG RM-D-016 (HIV-1).
In assay [19] the target is HIV-1 Env of pseudovirus MGRM-AG-005 (subtype AG) (HIV-1).
Assay [20] concerns the target HIV-1 Env of isolate MG RM-D-026 (HIV-1).
Assay [21] deals with HIV-1 Env of pseudovirus MGRM-AE-007 (subtype AE) (HIV-1).
For assay [22], the target named is HIV-1 Env of isolate MG RM-D-022 (HIV-1).
In assay [23] the target is HIV-1 Env of isolate MGRM-F1-015 (HIV-1).
Assay [24] deals with HIV-1 Env of pseudovirus MGRM-AG-008 (subtype AG) (HIV-1).
Assay [25] deals with HIV-1 Env of isolate MG RM-D-020 (HIV-1).
For assay [26], the target named is HIV-1 Env of isolate MG RM-D-012 (HIV-1).
Assay [27] concerns the target HIV-1 Env of isolate MGRM-F1-017 (HIV-1).
Assay [28] has as its target HIV-1 Env of isolate MGRM-F1-021 (HIV-1).
Assay [29] concerns the target HIV-1 Env of isolate MGRM-F1-016 (HIV-1).
Assay [30] deals with HIV-1 Env of pseudovirus MGRM-AG-001 (subtype AG) (HIV-1).
The target of assay [31] is HIV-1 Env of isolate MGRM-F1-022 (HIV-1).
Assay [32] has as its target HIV-1 Env of isolate MG RM-D-014 (HIV-1).
For assay [33], the target named is HIV-1 Env of isolate MG RM-D-018 (HIV-1).
For assay [34], the target named is HIV-1 Env of isolate MGRM-F1-018 (HIV-1).
Assay [35] has as its target HIV-1 Env of isolate MG RM-D-019 (HIV-1).
In assay [36] the target is HIV-1 Env of isolate MGRM-F1-020 (HIV-1).
The target of assay [37] is HIV-1 Env of isolate MG RM-D-021 (HIV-1).
The target in assay [38] is HIV-1 Env of pseudovirus MGRM-AG-011 (subtype AG) (HIV-1).
Assay [39] addresses HIV-1 Env of isolate MGRM-F1-023 (HIV-1).
The target of assay [40] is HIV-1 Env of isolate MGRM-F1-012 (HIV-1).
For assay [41], the target named is HIV-1 Env of isolate MGRM-F1-006 (HIV-1).
Assay [42] has as its target HIV-1 Env of pseudovirus MGRM-AG-009 (subtype AG) (HIV-1).
Assay [43] concerns the target HIV-1 Env of isolate MG RM-D-029 (HIV-1).
The target in assay [44] is HIV-1 Env of isolate MGRM-F1-008 (HIV-1).
The target in assay [45] is HIV-1 Env of isolate MG RM-D-028 (HIV-1).
For assay [46], the target named is HIV-1 Env of pseudovirus MGRM-AG-003 (subtype AG) (HIV-1).
Assay [47] has as its target HIV-1 Env of isolate MGRM-F1-010 (HIV-1).
Assay [48] deals with HIV-1 Env of isolate MGRM-F1-013 (HIV-1).
For assay [49], the target named is HIV-1 Env of pseudovirus MGRM-AG-006 (subtype AG) (HIV-1).
For assay [50], the target named is HIV-1 Env of pseudovirus MGRM-AE-008 (subtype AE) (HIV-1).
The target of assay [51] is HIV-1 Env of isolate MG RM-D-024 (HIV-1).
In assay [52] the target is HIV-1 Env of pseudovirus MGRM-AG-013 (subtype AG) (HIV-1).
The target of assay [53] is HIV-1 Env of isolate MGRM-F1-014 (HIV-1).
Assay [54] has as its target HIV-1 Env of isolate MG RM-D-013 (HIV-1).
Assay [55] concerns the target HIV-1 Env of pseudovirus MGRM-AG-002 (subtype AG) (HIV-1).
The target of assay [56] is HIV-1 Env of isolate MGRM-F1-004 (HIV-1).

Sequence of PGT-144 (antibody) (VH): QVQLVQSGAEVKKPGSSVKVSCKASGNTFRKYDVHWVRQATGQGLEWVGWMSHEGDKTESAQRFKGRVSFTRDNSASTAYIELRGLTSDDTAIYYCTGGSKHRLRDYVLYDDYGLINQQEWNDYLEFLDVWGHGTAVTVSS
Sequence of PGT-144 (antibody) (VL): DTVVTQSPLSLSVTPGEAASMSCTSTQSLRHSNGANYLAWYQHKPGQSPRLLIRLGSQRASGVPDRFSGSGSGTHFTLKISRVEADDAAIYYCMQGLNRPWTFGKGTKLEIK
Sequence of PGT-142 (4995_E20) (antibody) (VH): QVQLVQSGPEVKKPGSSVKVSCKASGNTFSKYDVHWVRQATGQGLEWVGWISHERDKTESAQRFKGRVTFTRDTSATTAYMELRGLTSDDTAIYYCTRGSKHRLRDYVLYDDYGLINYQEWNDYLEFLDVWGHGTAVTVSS
Sequence of PGT-142 (4995_E20) (antibody) (VL): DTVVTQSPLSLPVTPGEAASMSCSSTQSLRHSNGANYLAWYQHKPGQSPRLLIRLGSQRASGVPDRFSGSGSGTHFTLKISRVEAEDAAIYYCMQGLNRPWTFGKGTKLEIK
Sequence of PGT-145 (antibody) (VH): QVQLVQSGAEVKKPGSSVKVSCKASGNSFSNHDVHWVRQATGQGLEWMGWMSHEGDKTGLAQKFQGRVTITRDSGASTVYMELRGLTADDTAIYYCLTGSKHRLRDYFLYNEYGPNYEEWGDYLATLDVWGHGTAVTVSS
Sequence of PGT-145 (antibody) (VL): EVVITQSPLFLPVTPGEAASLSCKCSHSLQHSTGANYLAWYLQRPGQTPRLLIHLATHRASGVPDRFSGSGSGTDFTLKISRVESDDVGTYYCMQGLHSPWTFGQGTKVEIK
Sequence of PGT-143 (antibody) (VH): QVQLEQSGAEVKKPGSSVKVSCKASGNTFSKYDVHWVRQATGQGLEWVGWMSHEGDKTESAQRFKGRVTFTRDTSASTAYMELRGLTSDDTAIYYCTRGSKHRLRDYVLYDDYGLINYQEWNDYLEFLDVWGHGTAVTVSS
Sequence of PGT-143 (antibody) (VL): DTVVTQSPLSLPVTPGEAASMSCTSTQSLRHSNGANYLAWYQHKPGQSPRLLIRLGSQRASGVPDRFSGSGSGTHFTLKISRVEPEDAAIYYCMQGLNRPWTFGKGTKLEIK
Sequence of PGT-141 (antibody) (VH): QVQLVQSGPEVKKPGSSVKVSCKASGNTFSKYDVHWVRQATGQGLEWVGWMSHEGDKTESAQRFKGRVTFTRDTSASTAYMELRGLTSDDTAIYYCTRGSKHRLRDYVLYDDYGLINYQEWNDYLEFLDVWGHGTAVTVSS

On to “5113_D22 (labelled PGT-132 in Table 26) (antibody)”, for which the Primary Neutralization Index (B cell culture supernatant) in assay [1] is 3; in assay [2] it was 51; in assay [3] it was 6.
In the same order, the values of “5117_E22 (labelled PGT-133 in Table 26) (antibody)” are 3.6, 42.5 and 3.4.
Take PGT-141 (antibody): the IC50 (µg/mL), pseudovirus neutralization in assay [4] was 0.381 µg/mL; in assay [5], 11.8 µg/mL; in assay [6], 1.34 µg/mL; in assay [7] it was > 50 µg/mL; in assay [8], 13.8 µg/mL; in [9], 0.008 µg/mL. The IC50 (µg/mL), pseudovirus neutralization in assay [10] is 0.101 µg/mL; in assay [11] it was 4.02 µg/mL; in [12], 0.033 µg/mL; in assay [13] it was 3.27 µg/mL; in assay [14], 0.247 µg/mL; in assay [15] it was 0.153 µg/mL.
Consider PGT-142 (4995_E20) (antibody), for which the IC50 in [16] was > 50 µg/mL; in assay [18], > 50 µg/mL; in assay [20], 12.5 µg/mL; in assay [22], > 50 µg/mL; in [23] it was > 50 µg/mL; in assay [25], > 50 µg/mL. For the same substance, the IC50 was > 50 µg/mL in [26]; 23.5 µg/mL in [27]; > 50 µg/mL in assay [28]; > 50 µg/mL in assay [29]; 0.04 µg/mL in [31]; 0.005 µg/mL in [32]. Besides, the IC50 in assay [33] is > 50 µg/mL; in assay [34], 0.404 µg/mL; in assay [35], 0.155 µg/mL; in [36], 0.824 µg/mL; in assay [37], > 50 µg/mL; in assay [39], 0.602 µg/mL. In addition, the IC50 in [40] was > 50 µg/mL; in assay [41] it was 12.9 µg/mL; in [43], 0.192 µg/mL; in assay [44], 0.124 µg/mL; in assay [45] it was > 50 µg/mL; in [47], > 50 µg/mL. Besides, the IC50 in assay [48] is 0.023 µg/mL; in assay [51], > 50 µg/mL; in assay [53] it was 0.001 µg/mL; in assay [54], 0.221 µg/mL; in assay [56] it was 0.013 µg/mL. Further, the IC50, pseudovirus neutralization was > 50 µg/mL in assay [17]; 0.383 µg/mL in assay [19]; 6.7 µg/mL in assay [21]; 12.1 µg/mL in assay [24]; 12.4 µg/mL in [30]; 0.081 µg/mL in assay [38]. The IC50, pseudovirus neutralization is > 50 µg/mL in assay [42]; > 50 µg/mL in assay [46]; > 50 µg/mL in assay [49]; 0.08 µg/mL in assay [50]; 21.7 µg/mL in assay [52]; 0.044 µg/mL in [55].
For PGT-142 (antibody), the IC50 (µg/mL), pseudovirus neutralization in assay [4] was 0.086 µg/mL; in assay [5], 6.02 µg/mL; in assay [6] it was 0.446 µg/mL; in [7], > 50 µg/mL; in assay [8], 2.12 µg/mL; in [9] it was 0.003 µg/mL. Also, the IC50 (µg/mL), pseudovirus neutralization in assay [10] was found to be 0.03 µg/mL; in [11] it was 1.11 µg/mL; in [12] it was 0.038 µg/mL; in assay [13] it was 0.792 µg/mL; in [14], 0.183 µg/mL; in assay [15] it was 0.087 µg/mL.
With PGT-143 (antibody), the IC50 (µg/mL), pseudovirus neutralization in assay [4] was 0.103 µg/mL; in assay [5], 8.81 µg/mL; in [6], 0.797 µg/mL; in assay [7] it was > 50 µg/mL; in assay [8], 12.4 µg/mL; in assay [9] it was 0.004 µg/mL. Also, the IC50 (µg/mL), pseudovirus neutralization in assay [10] was found to be 0.05 µg/mL; in [11], 5.17 µg/mL; in assay [12], 0.085 µg/mL; in assay [13], 0.598 µg/mL; in [14], 0.336 µg/mL; in assay [15], 0.148 µg/mL.
Consider PGT-144 (antibody), for which the IC50 (µg/mL), pseudovirus neutralization in [4] was 2.58 µg/mL; in assay [5] it was > 50 µg/mL; in assay [6], 1.29 µg/mL; in [7] it was > 50 µg/mL; in assay [8], > 50 µg/mL; in assay [9], 0.513 µg/mL. The IC50 (µg/mL), pseudovirus neutralization is 2.06 µg/mL in [10]; 23 µg/mL in assay [11]; 0.236 µg/mL in assay [12]; > 50 µg/mL in [13]; 17.6 µg/mL in assay [14]; 0.38 µg/mL in assay [15].
PGT-145 (antibody): the IC50 (µg/mL), pseudovirus neutralization in [4] is 0.492 µg/mL; in [5], 5.82 µg/mL; in [6], 0.712 µg/mL; in [7], > 50 µg/mL; in assay [8], 0.099 µg/mL; in assay [9], 0.005 µg/mL. In addition, the IC50 (µg/mL), pseudovirus neutralization in assay [10] is 0.174 µg/mL; in assay [11], > 50 µg/mL; in assay [12], 0.12 µg/mL; in assay [13], 0.095 µg/mL; in [14] it was 0.044 µg/mL; in assay [15], 0.201 µg/mL.

What is called IC50 is the concentration that inhibits the measured activity by half. A low value points to higher potency.
